Source: patent US20230033370A1 (Bicycle, published 2023)
*1 amine or outer side, *2 acyl side, *3 side chain or, on linkers, in order; H or OH if unused. Bridges are numbered along the chain shown (N, C = ends). Where no end group is shown, it is not given here. TCAN = N,N',N''-(nitrilotris(ethane-2,1-diyl))tris(2-chloroacetamide) scaffold, O=C(C[*:1])NCCN(CCNC(=O)C[*:2])CCNC(=O)C[*:3]

Biological target: T1, Human IL-17A (human, UniProt Q16552 24-155)
T1 construct: Soluble IL-17A used at a fixed concentration (75 nM with tracer BCY13196) in the FP assay; also called CTLA-8
T1 sequence (looked up): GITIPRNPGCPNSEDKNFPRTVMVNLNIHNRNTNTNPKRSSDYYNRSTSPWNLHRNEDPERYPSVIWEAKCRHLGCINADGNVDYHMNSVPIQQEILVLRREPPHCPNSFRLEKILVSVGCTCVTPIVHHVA
Assay: fluorescence polarization competition, 75 nM human IL-17A, 1 nM tracer BCY13196 as competitor, mean of n=3
Method: Affinity determination by fluorescence polarization (FP) competition. Bicycles were screened to determine affinity (Ki) in a fluorescence polarisation assay where in competition with a bicycle labelled with fluorescein (referred to as tracer) with a known affinity for IL-17A. Peptides were diluted to an appropriate concentration in assay buffer (PBS+0.01% Tween20, adjusted to pH7.4 using NaOH (1M)) with a maximum of 1% DMSO, then serially diluted 1 in 2 into assay buffer. Into black 384-well low volume plates, 5 μL of diluted peptide was added to the plate followed by 10 μL of IL-17A at a fixed concentration (75 nM IL-17A for tracer BCY13196, 50 nM IL-17A for tracer BCY13351), then 10 μL tracer added to a final concentration of 1 nM. Measurements were conducted on a BMG PHERAstar FS equipped with an “FP 485 520 520” optic module which excites at 485 nm and detects parallel and perpendicular emission at 520 nm. The PHERAstar FS was set at 25° C. with 200 flashes per well and a positioning delay of 0.1 second, with each well measured at 5 to 10 minute intervals for 60 minutes. The gain used for measurements was determined at the point of experiment on a tracer alone well. Data analysis was performed in Dotmatics where mP values were fit to the Cheng Prusoff equation in order to generate a Ki value. The tracers used was BCY13196: [Fl]-[…] […]

B1: BCY13061 (peptide)
peptide: ACPQDLELCTFLFGDCA
modifications: linker 2-9-16 via TCAN
notes: Synthetic bicyclic peptide cyclised on the TCAN scaffold
For B1, the Ki was 488 nM.
